This passage reports EC50 and Kd results from patent publication US20120244166A1.

In general, EC50 refers to the concentration at which the effect is half-maximal. The low end stands for greater potency, the high end for weaker potency. A word on the Kd: it is the equilibrium constant for the complex coming apart. Read a high Kd as weaker binding.

In one assay the target is Du156.12. Nature of the assay: ELISA. (In an ELISA, binding on a coated surface is turned into a signal by an enzyme label.)
1 (Heavy chain: T33Y) registered an EC50 of 0.048 µg/mL.
The same measure, in the same setting: then 3 (Heavy chain: A56G), with 0.101 µg/mL; and 4 (Heavy chain: V57T), with 0.164 µg/mL; and 5 (Heavy chain: P62K), with 0.066 µg/mL.
The same measure, in the same setting: next, 6 (Heavy chain: V73T): 0.097 µg/mL; 7 (Heavy chain: Y74S): 0.071 µg/mL; 8 (Heavy chain: I30T): 0.063 µg/mL.
The same measure, in the same setting: next, 9 (Heavy chain: K52N): 0.056 µg/mL; 10 (Heavy chain: R53N): 0.063 µg/mL; 11 (Heavy chain: R61Q): 0.086 µg/mL.
In turn, 12 (Light chain: Y30S) had an EC50 of 0.196 µg/mL.

The target in a further assay is gp120 (HIV-1 strain YU2) (UniProt P35961). Put plainly: SPR.
b12 had a Kd of 38.1 nM. This lies in the double-digit nanomolar range.
